Results: patent US10359406B2, “Diagnosis and treatment of preeclampsia” (A1M Pharma AB, priority 2007, dated 2019)

B1: α1m: Recombinant human α1-microglobulin expressed in E. coli; small plasma and tissue protein, heme-binder and radical scavenger (protein, UniProt P02760 20-203, looked up)
Alpha-1-microglobulin: GPVPTPPDNIQVQENFNISRIYGKWYNLAIGSTCPWLKKIMDRMTVSTLVLGEGATEAEISMTSTRWRKGVCEETSGAYEKTDTDGKFLYHKSKWNITMESYVVHTNYDEYAIFLTKKFSRHHGPTITAKLYGRAPQLRETLLQDFRVVAQGVGIPEDSIFTMADRGECVPGEQEPEPILIPRV
modifications: Alpha-1-microglobulin

Key:
[1] = system: K562 cells; experiment: Scavenging of cell-bound heme from K562 cells (spectrophotometry, visual); assay type: cell-based, human; details: cells preloaded with 10 μM heme 30 min; protein 2 or 10 μM, 2 h
Description: FIG. 18. Scavenging of cell heme by α1m. Human erythroleukemic cells (K562) were cultured with either buffer or 10 μM heme for 30 minutes, washed and resuspended in fresh culture medium. A: The cells were then incubated with α1m (2 or 10 μM) for 2 hours, after which time the culture medium was saved. The cells were washed and solubilized by suspending in a buffer containing 1% NP-40. The culture medium and cellsuspension were then analysed spectrophotometrically by reading the absorbance spectra (300-700 nm). B: The various cultures were also analysed visually. Cells were incubated with either buffer or 10 μM heme for 30 min (Step 1), washed and then incubated with buffer, 10 μM α1m or 10 μM AGP for 2 hours (Step 2), washed and solubilized as described above.
To study the mechanisms of the cytoprotective effect of α1m, we performed a series of experiments attempting to analyze the interactions between the protein and cell-bound heme. […] The culture media were saved, cells washed and solubilized, and both media and solubilized cells analyzed by spectrophotometry (FIG. 18A) and visually (FIG. 18B). Heme was seen as a strong brown-coloring of the cells and the typical absorbance spectrum with a non-distinct peak around 400 nm. […]

[2] = human blood plasma glycoprotein; read-out: Kd of heme binding; cited from earlier work
[3] = system: K562 cells; experiment: Heme-induced cell lysis/death of K562 cells (propidium iodide, FACS); assay type: cell-based, human; details: extracellularly added α1m 2, 5 or 10 μM; 200 μM heme, 4 h
Description: (§1) FIG. 16. A. Cell-protective properties of α1m against heme- and ROS-induced oxidation. K562 cells were labelled with the oxidation-sensitive probe H2DCFDA, washed, and incubated with α1m (2, 5 or 10 μM), AGP (2, 5 or 10 μM) or ascorbate (10 μM) prior to the addition of 10 μM heme. The cells were incubated for 2 h and analysed with FACS. B. K562 cells were cultured with α1m (2, 5 or 10 μM) or a control protein (α1-acid glycoprotein, AGP) (10 μM) prior to the addition of 200 μM heme and cultured 4 h. The cell suspension was collected, mixed with propidium iodide and analysed with FACS.
(§2) The anti-oxidation properties of α1m are illustrated in FIGS. 16 and 17. […] A possible mechanism for these actions may be the reductase properties of α1m, reducing the oxidants, the oxidation modifications, or both.

[4] = system: K562 cells; experiment: Heme- and ROS-induced oxidation of K562 cells (H2DCFDA probe, FACS); assay type: cell-based, human; details: extracellularly added α1m 2, 5 or 10 μM; 10 μM heme, 2 h
Description: as §1, §2

[5] = system: collagen; experiment: Heme-induced oxidation of collagen/LDL; carbonyl groups measured by ELISA; assay type: biochemical
Description: FIG. 17. Reduction of carbonyl groups on oxidized collagen by α1m. Collagen, coated to microtiter plates, was oxidized by incubation with 50 μM heme for 17 h. After washing, 0.1, 0.3 or 1 μM α1m, ovalbumin or ascorbate were added, and incubated for 2 h. Carbonyl groups were measured by ELISA. Each column represents the mean of triplicates+/−SE
as §2

[6] = system: haemoglobin; experiment: Haemoglobin-α1m complex isolated from placenta tissue (anti-α1m affinity column, SDS-PAGE, Western blotting); assay type: binding, human; details: 43-kDa band reacting with anti-α1m and anti-Hb-A; lost with mercaptoethanol
Description: FIG. 20 show SDS-PAGE and Western blotting of a haemoglobin-α1m complex isolated from placenta tissue. A placenta from a healthy donor was homogenized and centrifuged at 100,000 G for 60 min. The supernatant was applied to an anti-α1m Affigel column which was rinsed and eluted with 0.1 M glycine-HCl, pH 2.3. The eluate was separated by SDS-PAGE which was either stained with Coommassie (two left lanes) or transferred to PVDF membranes and blotted with anti-α1m or anti-Hb-A.
Molecules containing α1m were purified from placenta tissue as described [Berggård et al., 1999]. Approximately 200 g of an apparently normal term human placenta, taken within 3 hours after delivery, were homogenized in 200 ml of 50 mM Tris-HCl, pH 8.0, 0.25 M sucrose, 2 mM EDTA, pepstatin, 1 mg/l, antipain, 5 mg/l, and leupeptin, 10 mg/l, using a Potter-Elvehjem apparatus with a tight-fitting teflon pestle. The homogenate was centrifuged at 10,000 G for 10 min. This pellet was washed by repeatedly suspending 1:1 in the homogenization buffer and recentrifugation at 10,000 G for 10 min. The supernatant was centrifuged at 100,000 G for 90 min. This pellet, containing the placenta membranes and membrane-bound proteins, was dissolved in 40 ml homogenization buffer also containing 0.5% (w/v) Nonidet P-40 (BDH Chemicals) and centrifuged at 20,000 G for 30 min to remove particulate material. […]

| Molecule | effect on cell-bound heme [1] | Kd [2] | cell lysis (cell death) induced by heme [3] | oxidation of cell cytosol and cytosol protein thiol groups by heme and ROS [4] | heme- and ROS-induced oxidation of collagen, LDL, membrane lipids and whole cells [5] | removal of pre-formed oxidation products (carbonyl groups) on collagen and LDL ([5]; collagen oxidized with 50 μM heme 17 h, 0.1, 0.3 or 1 μM α1m, 2 h) | binding of haemoglobin in placenta tissue [6] |
| --- | --- | --- | --- | --- | --- | --- | --- |
| AGP: control protein (α1-acid glycoprotein), control lipocalin [reference compound] | did not have any effect |  |  |  |  |  |  |
| Hemopexin: glycoprotein (60 kDa) found in human blood plasma which eliminates free heme by binding it strongly |  | ~1 pM |  |  |  |  |  |
| B1 | almost completely removed from the cells |  | inhibits the cell lysis | inhibit the oxidation | inhibited | removed pre-formed oxidation products | haemoglobin is bound by α1m |
